Test [1] addresses purified bovine cation-independent mannose 6-phosphate receptor (CI-MPR) (bovine) (UniProt P08169). The experiment in a line: plate assay: conditioned medium on immobilized bovine CI-MPR, bound enzyme by 4-MU activity.
For test [2] the target is unchanged. The experiment in a line: plate assay: conditioned medium on immobilized bovine CI-MPR, bound enzyme by 4-MU activity, linear range points.

Chain of UniProt P08169 (P08169 45-2313 limits assumed): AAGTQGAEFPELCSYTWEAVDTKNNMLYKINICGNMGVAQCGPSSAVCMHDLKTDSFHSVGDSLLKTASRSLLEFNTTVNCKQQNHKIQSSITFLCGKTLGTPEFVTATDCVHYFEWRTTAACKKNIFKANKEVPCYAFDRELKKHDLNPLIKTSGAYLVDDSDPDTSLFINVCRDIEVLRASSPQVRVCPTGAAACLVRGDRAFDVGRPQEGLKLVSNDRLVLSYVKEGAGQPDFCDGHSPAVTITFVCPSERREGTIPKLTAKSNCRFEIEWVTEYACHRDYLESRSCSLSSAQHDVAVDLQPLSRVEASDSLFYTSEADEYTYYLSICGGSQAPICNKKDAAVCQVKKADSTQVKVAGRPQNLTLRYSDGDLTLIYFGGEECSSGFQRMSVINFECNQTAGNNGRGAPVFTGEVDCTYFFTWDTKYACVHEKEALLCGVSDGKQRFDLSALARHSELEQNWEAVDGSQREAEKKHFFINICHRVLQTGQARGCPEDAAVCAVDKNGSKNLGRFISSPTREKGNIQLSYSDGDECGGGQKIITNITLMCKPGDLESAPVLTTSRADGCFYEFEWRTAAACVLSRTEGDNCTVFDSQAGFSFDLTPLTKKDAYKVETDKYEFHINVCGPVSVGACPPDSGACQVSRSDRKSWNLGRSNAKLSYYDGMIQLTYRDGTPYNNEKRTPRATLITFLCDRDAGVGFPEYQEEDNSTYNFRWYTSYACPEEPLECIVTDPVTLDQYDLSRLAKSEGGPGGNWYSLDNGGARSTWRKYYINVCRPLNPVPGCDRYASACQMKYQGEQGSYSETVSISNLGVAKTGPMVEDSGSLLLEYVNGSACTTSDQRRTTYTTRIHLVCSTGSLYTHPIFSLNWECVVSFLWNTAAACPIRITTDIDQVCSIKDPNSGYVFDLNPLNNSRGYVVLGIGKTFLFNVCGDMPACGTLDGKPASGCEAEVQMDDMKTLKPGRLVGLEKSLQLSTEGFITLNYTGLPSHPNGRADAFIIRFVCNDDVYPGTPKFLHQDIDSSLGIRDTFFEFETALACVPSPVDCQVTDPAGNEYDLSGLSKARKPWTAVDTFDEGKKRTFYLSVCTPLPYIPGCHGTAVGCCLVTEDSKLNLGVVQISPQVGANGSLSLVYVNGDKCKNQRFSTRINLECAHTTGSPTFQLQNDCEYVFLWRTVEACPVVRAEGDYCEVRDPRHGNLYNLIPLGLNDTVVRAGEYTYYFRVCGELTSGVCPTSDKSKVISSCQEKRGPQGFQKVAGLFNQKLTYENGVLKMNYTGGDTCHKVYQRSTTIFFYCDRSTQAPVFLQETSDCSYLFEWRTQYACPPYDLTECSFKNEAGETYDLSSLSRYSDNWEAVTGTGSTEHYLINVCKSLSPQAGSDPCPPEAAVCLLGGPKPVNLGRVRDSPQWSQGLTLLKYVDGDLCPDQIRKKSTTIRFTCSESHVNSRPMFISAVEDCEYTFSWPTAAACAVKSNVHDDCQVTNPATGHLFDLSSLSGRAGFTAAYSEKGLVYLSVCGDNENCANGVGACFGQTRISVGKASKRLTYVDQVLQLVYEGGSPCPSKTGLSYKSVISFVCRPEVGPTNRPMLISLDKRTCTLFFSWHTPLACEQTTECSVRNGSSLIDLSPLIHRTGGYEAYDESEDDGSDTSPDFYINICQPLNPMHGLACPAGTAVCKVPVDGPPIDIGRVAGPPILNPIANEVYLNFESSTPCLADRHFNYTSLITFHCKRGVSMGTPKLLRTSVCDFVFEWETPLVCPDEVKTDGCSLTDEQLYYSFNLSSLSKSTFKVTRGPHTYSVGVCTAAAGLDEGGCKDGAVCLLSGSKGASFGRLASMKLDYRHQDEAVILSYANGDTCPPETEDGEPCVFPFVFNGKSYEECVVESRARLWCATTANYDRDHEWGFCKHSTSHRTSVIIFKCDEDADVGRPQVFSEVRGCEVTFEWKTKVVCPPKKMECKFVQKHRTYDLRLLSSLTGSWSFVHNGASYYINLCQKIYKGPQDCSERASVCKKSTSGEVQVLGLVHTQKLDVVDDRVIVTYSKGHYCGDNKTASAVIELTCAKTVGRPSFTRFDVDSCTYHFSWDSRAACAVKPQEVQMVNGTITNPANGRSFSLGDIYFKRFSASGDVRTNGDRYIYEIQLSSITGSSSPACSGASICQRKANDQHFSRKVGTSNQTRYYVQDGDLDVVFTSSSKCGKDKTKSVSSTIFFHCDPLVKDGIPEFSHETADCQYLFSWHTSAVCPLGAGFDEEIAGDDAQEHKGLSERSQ

“human alpha-galactosidase (GLA) produced from GLA single plasmid in Expi293 cells (from UniProt P06280 32-429) (enzyme)” showed an overall binding percentage in test [1] of 33.1%.
“human alpha-galactosidase (GLA) produced from bicistronic plasmid pLL51 in Expi293 cells (from UniProt P06280 32-429) (enzyme)”: in test [1], the fold of binding percentage against GLA sample was found to be 2 fold and the overall binding percentage was found to be 62.1%.
Substance “human acid beta-glucosidase (GBA) produced by co-transfection of GBA plasmid and CMV-S1S3 plasmid in Expi293 cells (from UniProt P04062 40-536) (enzyme)” registered a percentage of receptor binding in test [2] of 43%.
Still for that read-out and setting: as for “human acid beta-glucosidase (GBA) produced from GBA single expression plasmid in Expi293 cells (endogenous phosphotransferase) (from UniProt P04062 40-536) (enzyme)”, the figure is 4.5%.
The substance “human acid beta-glucosidase (GBA) produced from bicistronic plasmid pLL11 (pCMV-hGBA-IRES-S1S3) in Expi293 cells (from UniProt P04062 40-536) (enzyme)” yielded a percentage of receptor binding in test [2] of 44%. Further, the fold of percentage bound against GBA produced by endogenous phosphotransferase in test [1] was 10 fold.

Values taken from US20220380800A1.
